According to IntAct's records for PubMed 28506294:

B1: SOSS complex subunit B1 (Homo sapiens), Q9BQ15 (parent)
chain: MTTETFVKDIKPGLKNLNLIFIVLETGRVTKTKDGHEVRTCKVADKTGSINISVWDDVGNLIQPGDIIRLTKGYASVFKGCLTLYTGRGGDLQKIGEFCMVYSEVPNFSEPNPEYSTQQAPNKAVQNDSNPSASQPTTGPSAASPASENQNGNGLSAPPGPGGGPHPPHTPSHPPSTRITRSQPNHTPAGPPGPSSNPVSNGKETRRSSKR

Variants of: B1
Conditions: with int3_human INTS3, Q68E01
Chain of int3_human INTS3, Q68E01 (Q68E01 whole entry): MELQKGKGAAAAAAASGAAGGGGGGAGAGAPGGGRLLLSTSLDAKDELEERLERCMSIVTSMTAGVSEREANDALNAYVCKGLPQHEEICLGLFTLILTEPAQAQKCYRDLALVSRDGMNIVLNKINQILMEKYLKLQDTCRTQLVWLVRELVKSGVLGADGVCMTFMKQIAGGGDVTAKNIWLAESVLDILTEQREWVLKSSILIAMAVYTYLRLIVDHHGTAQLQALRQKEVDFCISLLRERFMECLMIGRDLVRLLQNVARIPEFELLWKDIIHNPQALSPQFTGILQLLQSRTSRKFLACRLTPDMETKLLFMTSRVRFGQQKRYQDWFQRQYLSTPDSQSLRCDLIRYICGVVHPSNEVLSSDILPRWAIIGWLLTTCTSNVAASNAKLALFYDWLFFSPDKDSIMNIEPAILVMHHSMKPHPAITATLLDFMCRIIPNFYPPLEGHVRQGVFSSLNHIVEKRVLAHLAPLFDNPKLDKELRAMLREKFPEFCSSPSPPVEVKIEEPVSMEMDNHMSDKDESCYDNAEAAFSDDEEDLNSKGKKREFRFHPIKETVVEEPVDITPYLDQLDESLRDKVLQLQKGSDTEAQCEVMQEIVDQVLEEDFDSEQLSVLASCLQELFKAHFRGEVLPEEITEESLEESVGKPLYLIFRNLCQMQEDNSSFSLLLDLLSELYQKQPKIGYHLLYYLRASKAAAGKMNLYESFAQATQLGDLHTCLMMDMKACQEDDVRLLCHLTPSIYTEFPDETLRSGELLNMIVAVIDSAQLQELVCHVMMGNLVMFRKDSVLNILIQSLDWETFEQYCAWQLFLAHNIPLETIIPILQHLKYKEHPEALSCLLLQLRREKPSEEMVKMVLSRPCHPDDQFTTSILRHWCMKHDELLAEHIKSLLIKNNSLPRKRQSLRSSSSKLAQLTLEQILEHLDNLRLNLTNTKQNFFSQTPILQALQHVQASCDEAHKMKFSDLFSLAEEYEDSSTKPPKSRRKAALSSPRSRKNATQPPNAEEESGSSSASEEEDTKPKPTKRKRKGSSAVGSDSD

Variant | effect of a mutation on the interaction
F98A | disrupting interaction strength
